Source: patent publication US20170291930A1 (UNIVERSITY OF MARYLAND BALTIMORE, published 2017)
No end group written: not given here.

Each binder was assayed against purified recombinant Sap9 (C. albicans secreted aspartic protease 9) (Candida albicans) (assay: cell-based or functional assay).

Binder	intact peptide remaining after 2 h at 37 C with 3.13 ug/mL Sap9 (gel densitometry)	intact peptide remaining after 2 h with 6.25 ug/mL Sap9
DSHAKRHHGYKRKFHERHHSHRGY [Hst-5 synthetic peptide K17R]	82%	> 60%
DSHAKRHHGYKRKFHELHHSHRGY [Hst-5 synthetic peptide K17L]	77%	> 60%
DSHAKRHHGYKRKFHEKHHSHRGY (also: hydrochloride salt) [parent Hst-5 peptide (Histatin-5)]	47%	
DSHARRHHGYKRKFHEKHHSHRGY [Hst-5 synthetic peptide K5R]		4.5%
DSHAKRHHGYRRKFHEKHHSHRGY [Hst-5 synthetic peptide K11R]		20%
